Data from patent US6127119, “Nucleic acid ligands of tissue target” (NeXstar Pharmaceuticals, Inc.).

Biological target: Fibrinogen (Homo sapiens, UniProt P02671-2;P02675;P02679-2 P02671-2:20-644,P02675:31-491,P02679-2:27-437)
Experiment: filter; low class; printed l mM, probably uM; clone printed FCNB
Details: chain copies: 2

Fibrinogen, sequence (P02671 other isoform, or with tags, fused parts or gaps, chain 1 of 3): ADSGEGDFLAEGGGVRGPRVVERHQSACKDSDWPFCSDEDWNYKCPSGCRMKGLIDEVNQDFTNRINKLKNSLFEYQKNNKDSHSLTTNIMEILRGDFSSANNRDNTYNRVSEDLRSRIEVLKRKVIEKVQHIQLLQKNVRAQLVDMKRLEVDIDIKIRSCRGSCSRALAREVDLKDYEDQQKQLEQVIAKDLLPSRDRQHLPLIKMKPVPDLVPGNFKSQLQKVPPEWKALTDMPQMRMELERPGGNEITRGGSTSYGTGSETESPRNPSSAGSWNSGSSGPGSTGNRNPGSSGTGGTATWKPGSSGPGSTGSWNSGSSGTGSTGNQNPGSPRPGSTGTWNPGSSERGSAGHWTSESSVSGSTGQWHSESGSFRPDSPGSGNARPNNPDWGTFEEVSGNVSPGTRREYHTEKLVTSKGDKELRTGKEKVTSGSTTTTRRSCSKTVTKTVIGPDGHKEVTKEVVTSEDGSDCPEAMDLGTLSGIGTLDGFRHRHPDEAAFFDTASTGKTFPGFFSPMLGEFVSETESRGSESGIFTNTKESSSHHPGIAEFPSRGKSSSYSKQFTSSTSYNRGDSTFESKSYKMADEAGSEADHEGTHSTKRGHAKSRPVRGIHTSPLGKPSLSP
Fibrinogen, sequence (P02675 31-491, chain 2 of 3): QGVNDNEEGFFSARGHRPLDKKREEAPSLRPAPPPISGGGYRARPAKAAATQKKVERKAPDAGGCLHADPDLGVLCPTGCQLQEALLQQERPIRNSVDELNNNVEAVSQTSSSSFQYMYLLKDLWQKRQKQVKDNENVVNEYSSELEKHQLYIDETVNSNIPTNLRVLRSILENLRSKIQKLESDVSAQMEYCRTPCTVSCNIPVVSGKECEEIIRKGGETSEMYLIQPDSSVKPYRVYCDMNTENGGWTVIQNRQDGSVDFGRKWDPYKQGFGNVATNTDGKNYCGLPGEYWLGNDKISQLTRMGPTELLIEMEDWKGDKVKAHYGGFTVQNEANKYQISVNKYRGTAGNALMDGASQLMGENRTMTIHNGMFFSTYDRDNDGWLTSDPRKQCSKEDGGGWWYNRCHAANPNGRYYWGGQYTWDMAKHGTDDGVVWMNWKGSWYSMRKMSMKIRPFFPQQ
Fibrinogen, sequence (P02679 other isoform, or with tags, fused parts or gaps, chain 3 of 3): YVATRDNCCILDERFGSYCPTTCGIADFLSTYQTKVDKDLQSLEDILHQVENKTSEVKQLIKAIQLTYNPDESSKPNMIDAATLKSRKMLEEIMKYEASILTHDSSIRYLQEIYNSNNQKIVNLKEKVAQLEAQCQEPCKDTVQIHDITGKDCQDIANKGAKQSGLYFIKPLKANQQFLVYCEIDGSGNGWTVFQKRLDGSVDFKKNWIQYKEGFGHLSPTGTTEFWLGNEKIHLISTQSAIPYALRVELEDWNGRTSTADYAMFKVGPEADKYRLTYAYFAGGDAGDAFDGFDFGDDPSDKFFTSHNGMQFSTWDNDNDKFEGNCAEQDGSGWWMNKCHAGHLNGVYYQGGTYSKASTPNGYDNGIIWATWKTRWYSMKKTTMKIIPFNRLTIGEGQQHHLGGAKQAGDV

B1: FCN8 (ssRNA)
RNA: GGGAGAUAAGAAUAAACGCUCAAUAGCAAGUCCCACAUCCCAGACGGGCUAAAAAGAGGUGGAUUCGACAGGAGGCUCACAACAGGC
modifications: 2'-F pyrimidines
- Kd: > 1000 nM
